Experimental data published in article PMC12945441 (2022).

Target: SARS-CoV-2 Wuhan-Hu-1 receptor-binding domain (SARS-CoV-2 Wuhan-Hu-1)
Assay: ELISA

B1: S2X324 mAb (antibody, V domains shown)
VH: QITLKESGPTLVKPTQTLTLTCTFSGFSVTTSGVGVGWIRQPPGKALEYLALIYWDDDKRYSTSLKSRLTITKDTSKNQVVLTMTNMDPVDTATYYCARHTIPSIFDYWGQGILVTVSS
VL: QPVLTQPASVSGSPGQSITISCTATSSDVGNYNYVSWYQHHPGKAPKLMIYEVSNRPSGVSNRFSGSKSGNTASLTISGLQAEDEADYYCSSYTSSSLLFGGGTKLTVL
With B1 the IC50 was 0.0267 µg/mL.
